B1: SNX8 (parent)
chain: VVLKLFLSFSGSDVQNKLKESAQC

Variants of: B1
Experiment: protein stability index of a GFP-peptide fusion (GPS, HEK-293T) (PSI 1-6); higher = more stable
Details: c terminus: a fixed tail appended
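Further: lentivirally expressed fusions sorted by FACS into six bins by GFP to DsRed ratio, PSI derived from sequencing read proportions per bin multiplied by bin number.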

Variant | protein stability index
VVLKLFLSFSCSDVQNKLKESAQC | 1.74
VVLKLFLSFSHSDVQNKLKESAQC | 2.62
VVLKLFLSFSLSDVQNKLKESAQC | 3.09
VVLKLFLSFSRSDVQNKLKESAQC | 3.97
VVLKLFLSFSFSDVQNKLKESAQC | 3.55
VVLKLFLSFSYSDVQNKLKESAQC | 2.42
VVLKLFLSFSISDVQNKLKESAQC | 2.14
VVLKLFLSFSSSDVQNKLKESAQC | 2.41
VVLKLFLSFSASDVQNKLKESAQC | 2.33
VVLKLFLSFSVSDVQNKLKESAQC | 3.28
VVLKLFLSFSQSDVQNKLKESAQC | 1.77
VVLKLFLSFSDSDVQNKLKESAQC | 2.11
VVLKLFLSFSESDVQNKLKESAQC | 3.17
WVLKLFLSFSGSDVQNKLKESAQC | 1.04
TVLKLFLSFSGSDVQNKLKESAQC | 2.48
YVLKLFLSFSGSDVQNKLKESAQC | 2.69
VVLKLFFSFSGSDVQNKLKESAQC | 2.35
VVLKLFESFSGSDVQNKLKESAQC | 2.56
VVLKLFPSFSGSDVQNKLKESAQC | 2.34
VVLKLFVSFSGSDVQNKLKESAQC | 3.66
VVLKLFNSFSGSDVQNKLKESAQC | 1.09
VVLKLFHSFSGSDVQNKLKESAQC | 3.04
VVLKLFGSFSGSDVQNKLKESAQC | 1.43
VVLKLFKSFSGSDVQNKLKESAQC | 1.84

Variant | protein stability index
VVLKLFDSFSGSDVQNKLKESAQC | 1.73
VVLKLFQSFSGSDVQNKLKESAQC | 1.63
VVLELFLSFSGSDVQNKLKESAQC | 4.58
VVLQLFLSFSGSDVQNKLKESAQC | 2.43
VVLNLFLSFSGSDVQNKLKESAQC | 2.76
VVLPLFLSFSGSDVQNKLKESAQC | 3.99
VVLHLFLSFSGSDVQNKLKESAQC | 2.6
VVLFLFLSFSGSDVQNKLKESAQC | 2.27
VVLSLFLSFSGSDVQNKLKESAQC | 2.38
VVLKLFLSFSGHDVQNKLKESAQC | 1.9
VVLKLFLSFSGDDVQNKLKESAQC | 3.29
VVLKLFLSFSGYDVQNKLKESAQC | 4.07
VVLKLFLSFSGNDVQNKLKESAQC | 2.13
VVLKLFLSFSGADVQNKLKESAQC | 2.2
VVLKLFLSFSGIDVQNKLKESAQC | 2.62
VVLKLFLSFSGQDVQNKLKESAQC | 3.23
VVLKLFLSFSGLDVQNKLKESAQC | 1.37
VVLKLFLSFSGKDVQNKLKESAQC | 3.15
VVLKLFLSFSGWDVQNKLKESAQC | 3.39
VVLKLFLSFSGPDVQNKLKESAQC | 3.58
VVLKLFLSFSGMDVQNKLKESAQC | 1.72
VVLKLFLSFSGTDVQNKLKESAQC | 3.29
VVLKLFLSFSGSTVQNKLKESAQC | 2.28
VVLKLFLSFSGSCVQNKLKESAQC | 2.1

Variant | protein stability index
VVLKLFLSFSGSHVQNKLKESAQC | 3.62
VVLKLFLSFSGSFVQNKLKESAQC | 2.07
VVLKLFLSFSGSQVQNKLKESAQC | 3.33
VVLKLFLSFSGSDVQAKLKESAQC | 2.02
VVLKLFLSFSGSDVQRKLKESAQC | 2.84
VVLKLFLSFSGSDVQKKLKESAQC | 2.2
VVLKLFLSFSGSDVQQKLKESAQC | 4.03
VVLKLFLSFSGSDVQHKLKESAQC | 1.75
VVLKLFLSFSGSDVQWKLKESAQC | 3.64
VVLKLFLSFSGSDVQIKLKESAQC | 2.64
VVLKLFLSFSGSDVQFKLKESAQC | 2.04
VVLKLFLSFSGSDVQGKLKESAQC | 1.35
VVLKLFLSFSGSDVQNKTKESAQC | 2.13
VVLKLFLSFSGSDVQNKMKESAQC | 4.11
VVLKLFLSFSGSDVQNKAKESAQC | 2.7
VVLKLFLSFSGSDVQNKRKESAQC | 1.5
VVLKLFLSFSGSDVQNKFKESAQC | 2.86
VVLKLFLSFSGSDVQNKEKESAQC | 2.26
VVLKLFLSFSGSDVQNKQKESAQC | 4.56
VVLKLFLSFSGSDVQNKWKESAQC | 1.93
VVLKLFLSFSGSDVQNKIKESAQC | 2.58
VVLKLFLSFSGSDVQNKCKESAQC | 3.48
VVLKLFLSFSGSDVQNKGKESAQC | 4.32
VVLKLFLRFSGSDVQNKLKESAQC | 1.92

Variant | protein stability index
VVLKLFLLFSGSDVQNKLKESAQC | 2.45
VVLKLFLMFSGSDVQNKLKESAQC | 4.24
VVLKLFLAFSGSDVQNKLKESAQC | 1.77
VVLKLFLGFSGSDVQNKLKESAQC | 1.91
VVLKLFLPFSGSDVQNKLKESAQC | 5.05
VVLKLFLWFSGSDVQNKLKESAQC | 2.64
VVLKLFLSFSGSDVQNVLKESAQC | 2.59
VVLKLFLSFSGSDVQNYLKESAQC | 3.54
VVLKLFLSFSGSDVQNTLKESAQC | 3.29
VVLKLFLSFSGSDVQNLLKESAQC | 3.46
VVLKLFLSFSGSDVQNALKESAQC | 1.72
VVLKLFLSFSGSDVQNWLKESAQC | 4.7
VVLKLFLSFMGSDVQNKLKESAQC | 1.38
VVLKLFLSFQGSDVQNKLKESAQC | 2.18
VVLKLFLSFPGSDVQNKLKESAQC | 1.78
VVLKLFLSFTGSDVQNKLKESAQC | 4.41
VVLKLFLSFYGSDVQNKLKESAQC | 2.26
VVLKLFLSFAGSDVQNKLKESAQC | 1.79
VVLKLFLSFNGSDVQNKLKESAQC | 2.75
VVLKLFLSFDGSDVQNKLKESAQC | 2.68
VVLKLFLSFLGSDVQNKLKESAQC | 2.45
VVLKLFLSFVGSDVQNKLKESAQC | 3.99
VVLKLFLSFKGSDVQNKLKESAQC | 2.22
VVLKLFLSFWGSDVQNKLKESAQC | 3.92

Variant | protein stability index
VVLKLFLSFRGSDVQNKLKESAQC | 2.08
VVPKLFLSFSGSDVQNKLKESAQC | 2.87
VVDKLFLSFSGSDVQNKLKESAQC | 2.44
VVAKLFLSFSGSDVQNKLKESAQC | 2.34
VVHKLFLSFSGSDVQNKLKESAQC | 3.17
VVYKLFLSFSGSDVQNKLKESAQC | 1.94
VVGKLFLSFSGSDVQNKLKESAQC | 1.78
VVNKLFLSFSGSDVQNKLKESAQC | 2.21
VVKKLFLSFSGSDVQNKLKESAQC | 2.5
VVEKLFLSFSGSDVQNKLKESAQC | 1.57
VVFKLFLSFSGSDVQNKLKESAQC | 3.59
VVTKLFLSFSGSDVQNKLKESAQC | 1.2
VVSKLFLSFSGSDVQNKLKESAQC | 1.66
VVCKLFLSFSGSDVQNKLKESAQC | 2.4
VVVKLFLSFSGSDVQNKLKESAQC | 3.77
VVQKLFLSFSGSDVQNKLKESAQC | 2.61
VPLKLFLSFSGSDVQNKLKESAQC | 2.19
VWLKLFLSFSGSDVQNKLKESAQC | 3.59
VELKLFLSFSGSDVQNKLKESAQC | 1.39
VALKLFLSFSGSDVQNKLKESAQC | 3.41
VNLKLFLSFSGSDVQNKLKESAQC | 1.11
VSLKLFLSFSGSDVQNKLKESAQC | 2.79
VCLKLFLSFSGSDVQNKLKESAQC | 3.14
VYLKLFLSFSGSDVQNKLKESAQC | 2.24

Variant | protein stability index
VLLKLFLSFSGSDVQNKLKESAQC | 2.09
VMLKLFLSFSGSDVQNKLKESAQC | 2.57
VDLKLFLSFSGSDVQNKLKESAQC | 1.4
VKLKLFLSFSGSDVQNKLKESAQC | 3.26
VVLKLFLSFSGSDVQNKLQESAQC | 5.1
VVLKLFLSFSGSDVQNKLFESAQC | 2.79
VVLKLFLSFSGSDVQNKLIESAQC | 2.23
VVLKLFLSFSGSDVQNKLAESAQC | 4.92
VVLKLFLSFSGSDVQNKLRESAQC | 2.25
VVLKLFLSFSGSDVQNKLMESAQC | 2.37
VVLKLFLSFSGSDVQNKLGESAQC | 3.41
VVLKLFLSFSGSDVQNKLNESAQC | 2.76
VVLKLFLSFSGSDVQNKLPESAQC | 3.75
VVLKLFLSFSGSDTQNKLKESAQC | 2.53
VVLKLFLSFSGSDAQNKLKESAQC | 2.43
VVLKLFLSFSGSDYQNKLKESAQC | 2.62
VVLKLFLSFSGSDEQNKLKESAQC | 1.91
VVLKLFLSFSGSDNQNKLKESAQC | 1.99
VVLKLFLSFSGSDDQNKLKESAQC | 2.3
VVLKLFLSFSGSDHQNKLKESAQC | 1.59
VVLKLFLSFSGSDSQNKLKESAQC | 4.53
VVLKLFLSFSGSDKQNKLKESAQC | 1.82
VVLKLFLSFSGSDVQNKLKASAQC | 2.89
VVLKLFLSFSGSDVQNKLKFSAQC | 3.18

Variant | protein stability index
VVLKLFLSFSGSDVQNKLKCSAQC | 3.61
VVLKLFLSFSGSDVQNKLKDSAQC | 3.55
VVLKQFLSFSGSDVQNKLKESAQC | 2.61
VVLKGFLSFSGSDVQNKLKESAQC | 1.55
VVLKCFLSFSGSDVQNKLKESAQC | 2.91
VVLKHFLSFSGSDVQNKLKESAQC | 2.57
VVLKRFLSFSGSDVQNKLKESAQC | 1.92
VVLKIFLSFSGSDVQNKLKESAQC | 2.62
VVLKYFLSFSGSDVQNKLKESAQC | 1.69
VVLKFFLSFSGSDVQNKLKESAQC | 3.22
VVLKSFLSFSGSDVQNKLKESAQC | 1.1
VVLKDFLSFSGSDVQNKLKESAQC | 2.41
VVLKPFLSFSGSDVQNKLKESAQC | 1.83
VVLKAFLSFSGSDVQNKLKESAQC | 2.93
VVLKEFLSFSGSDVQNKLKESAQC | 1.79
VVLKKFLSFSGSDVQNKLKESAQC | 2.59
VVLKLFLSISGSDVQNKLKESAQC | 3.38
VVLKLFLSYSGSDVQNKLKESAQC | 3.17
VVLKLFLSHSGSDVQNKLKESAQC | 3.85
VVLKLFLSNSGSDVQNKLKESAQC | 1.66
VVLKLFLSRSGSDVQNKLKESAQC | 2.42
VVLKLFLSASGSDVQNKLKESAQC | 3
VVLKLFLSTSGSDVQNKLKESAQC | 2.41
VVLKLFLSPSGSDVQNKLKESAQC | 2.64

Variant | protein stability index
VVLKLFLSVSGSDVQNKLKESAQC | 3.52
VVLKLFLSKSGSDVQNKLKESAQC | 1.72
VVLKLFLSWSGSDVQNKLKESAQC | 2.48
VVLKLFLSQSGSDVQNKLKESAQC | 4.89
VVLKLFLSESGSDVQNKLKESAQC | 1.11
VVLKLFLSFSGSDVYNKLKESAQC | 3.96
VVLKLFLSFSGSDVFNKLKESAQC | 3.49
VVLKLFLSFSGSDVMNKLKESAQC | 4.13
VVLKLFLSFSGSDVNNKLKESAQC | 2.9
VVLKLFLSFSGSDVDNKLKESAQC | 1.8
VVLKLFLSFSGSDVTNKLKESAQC | 3.35
VVLKLFLSFSGSDVCNKLKESAQC | 4.88
VVLKLPLSFSGSDVQNKLKESAQC | 2.29
VVLKLDLSFSGSDVQNKLKESAQC | 1.17
VVLKLELSFSGSDVQNKLKESAQC | 1.31
VVLKLILSFSGSDVQNKLKESAQC | 2.18
VVLKLNLSFSGSDVQNKLKESAQC | 3.24
VVLKLKLSFSGSDVQNKLKESAQC | 3.48
VVLKLMLSFSGSDVQNKLKESAQC | 2.48
VVLKLSLSFSGSDVQNKLKESAQC | 3.13

— the supplement of paper PMC10567573
